Assay results as given in US20180155451A1 (published 2018).
Numbering of substitutions follows the chain as printed.

Tests used:
[1] = target: T1, FcγRIa extracellular domain with C-terminal His tag (human, UniProt P12314 16-292); test: SPR (Biacore), antibody captured on chip, soluble FcgR as analyte; experiment 2
T1 construct: extracellular domain; also called FcgRI; FcgRIa; not shown: His tag at the C terminus
Method: (§1) Antibodies of interest were analyzed for the interaction to FcgR according to the method described in Reference Example 8.
(§2) Analysis of interaction between obj ective antibody and the FcγR was carried out using Biacore T100 (GE Healthcare), Biacore T200, Biacore A100, and Biacore 4000. HBS-EP+ (GE Healthcare) was used as the running buffer, and the measurement temperature was set to 25° C. Chips produced by immobilizing the antigen peptide by the amine coupling method to a Series S sensor Chip CM5 (GE Healthcare), chips produced by allowing preliminarily biotinylated antigen peptides to interact with and immobilize onto a Series S Sensor Chip SA (certified) (GE Healthcare), chips produced by immobilizing Protein L (ACTIGEN, BioVision) to Series S Sencor Chip CM5 (GE Healthcare), or chips produced by immobilizing Protein A/G (Thermo Scientific) to Series S Sencor Chip CM5 (GE Healthcare) were used. Antibodies of interest were captured onto these chips, and allowed to interact to each FcγR diluted with running buffer. To regenerate and repeatedly use the chip, the antibodies captured onto the chip were washed off by reacting 10 mM glycine-HCl, pH 1.5.

[2] = target: T2, FcγRIIa R type extracellular domain with C-terminal His tag (human, UniProt P12318 34-217); test: as above
T2 construct: extracellular domain; also called FcgRIIa R; FcgRIIaR; not shown: His tag at the C terminus
T2 sequence (looked up): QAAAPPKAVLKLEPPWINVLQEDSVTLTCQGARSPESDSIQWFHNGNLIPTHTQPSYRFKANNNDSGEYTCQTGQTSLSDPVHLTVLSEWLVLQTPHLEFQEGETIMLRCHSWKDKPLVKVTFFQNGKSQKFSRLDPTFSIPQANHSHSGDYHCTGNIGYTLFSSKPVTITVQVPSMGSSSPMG
Method: as §1, §2

[3] = target: T3, FcγRIIa H type extracellular domain with C-terminal His tag (human, UniProt P12318 34-217); test: as above
T3 construct: extracellular domain; also called FcgRIIa H; FcgRIIaH; not shown: His tag at the C terminus
T3 sequence (looked up): T2 sequence (looked up) with R134H
Method: as §1, §2

[4] = target: T4, FcγRIIb extracellular domain with C-terminal His tag (human, UniProt P31994 43-217); test: as above
T4 construct: extracellular domain; also called FcgRIIb; 2b; not shown: His tag at the C terminus
T4 sequence (looked up): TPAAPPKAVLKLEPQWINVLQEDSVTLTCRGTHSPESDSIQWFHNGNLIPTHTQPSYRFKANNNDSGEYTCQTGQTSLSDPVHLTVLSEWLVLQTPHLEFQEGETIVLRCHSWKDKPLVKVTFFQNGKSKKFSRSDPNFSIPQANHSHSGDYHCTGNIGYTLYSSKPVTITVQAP
Method: as §1, §2

[5] = target: T5, FcγRIIIa F type extracellular domain with C-terminal His tag (human, UniProt P08637 17-208); test: as above
T5 construct: extracellular domain; also called FcgRIIIa F; FcgRIIIaF; not shown: His tag at the C terminus
T5 sequence (P08637 17-208): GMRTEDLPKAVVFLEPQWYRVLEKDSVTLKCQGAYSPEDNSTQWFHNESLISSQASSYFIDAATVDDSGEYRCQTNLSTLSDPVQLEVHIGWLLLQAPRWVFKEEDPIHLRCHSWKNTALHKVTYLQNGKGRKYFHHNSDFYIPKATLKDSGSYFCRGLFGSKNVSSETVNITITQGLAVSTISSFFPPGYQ
Method: as §1, §2

[6] = target: T6, FcγRIIIa V type extracellular domain with C-terminal His tag (human, UniProt P08637 17-208); test: as above
T6 construct: extracellular domain; also called FcgRIIIa V; FcgRIIIaV; not shown: His tag at the C terminus
T6 sequence (P08637 17-208 F176V): as the sequence (P08637 17-208) above, with F160V counted along it
Method: as §1, §2

[7] = target: T7, FcγRIIIa extracellular domain with C-terminal His tag (human, UniProt P08637 17-208); test: SPR (Biacore), antibody captured on antigen peptide chip, FcγR as analyte
T7 construct: extracellular domain; also called FcgRIIIa; CD16A
T7 sequence (P08637 17-208): as the sequence (P08637 17-208) above
Description: The expression vectors for the respective H chains were combined in a way that each of the alterations L234Y, G236W, S298A, S239D, A330L, and I332E is present in the same H chain as P329R or in the different H chain from P329R, and the expression vector GpL16-k0 for the L chain was combined with them. Antibodies of interest were expressed and prepared according to the method described in Reference Example 1. The prepared antibodies were used to assay the FcγRIIIa-binding activity. The result of assessment using P329R on the direction of FcγRIIIa recognition by L234Y, G236W, S298A, S239D, A330L, and I332E is summarized in Table 12.
Analysis of interaction between objective antibody and the FcγR was carried out using Biacore T100 (GE Healthcare). HBS-EP+ (GE Healthcare) was used as the running buffer, and the measurement temperature was set to 25° C. Chips produced by immobilizing the antigen peptide by the amine coupling method to a Series S Sencor Chip CM5 (GE Healthcare), or alternatively, chips produced by allowing preliminarily biotinylated antigen peptides to interact with and immobilize onto a Series S Sensor Chip SA (certified) (GE Healthcare) were used. Antibodies of interest were captured onto an antigen peptide-immobilized chip, and allowed to interact to each FcγR diluted with running buffer. To regenerate and repeatedly use the chip, the antibodies captured on the chip were washed off by reacting 10 mM glycine-HCl, pH 1.5.

T1 sequence (P12314 16-292): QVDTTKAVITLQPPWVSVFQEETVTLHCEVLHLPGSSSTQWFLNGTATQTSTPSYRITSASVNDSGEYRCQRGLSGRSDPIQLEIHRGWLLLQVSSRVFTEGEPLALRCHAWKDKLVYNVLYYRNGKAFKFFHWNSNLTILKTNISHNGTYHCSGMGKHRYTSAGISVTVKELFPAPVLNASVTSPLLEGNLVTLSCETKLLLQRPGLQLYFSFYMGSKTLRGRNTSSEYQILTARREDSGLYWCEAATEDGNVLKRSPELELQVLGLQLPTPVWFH

B1: H240-FA009/H240-FB052/L73-k0 (antibody, human IgG1, kappa)
heavy 1: QDQLVQSGAEVKKPGASVKVSCKASGFNIKDTYIQWVRQAPGQGLEWMGRIDPLRKQTKYREKFEGRVTITADTSTNTAYMELSSLRSEDTAVYYCVRSGREFDYWGQGTLVTVSSASTKGPSVFPLAPSSKSTSGGTAALGCLVKDYFPEPVTVSWNSGALTSGVHTFPAVLQSSGLYSLSSVVTVPSSSLGTKTYICNVNHKPSNTKVDKKVEPKSCDKTHTCPPCPAPEYYWGPSVFLFPPKPKDTLMISRTPEVTCVVVDVSDEEPEVKFNWYVDGVEVHNAKTKPREEQYNATYRVVSVLTVLHQDWLNGKEYKCKVSNKALPAPIEKTISKAKGQPREPQVYTLPPSRKEMTKNQVSLTCLVKGFYPSDIAVEWESNGQPENNYKTTPPVLDSDGSFFLYSKLTVDKSRWQQGNVFSCSVMHEALHNRYTQKSLSLSP
heavy 2: QDQLVQSGAEVKKPGASVKVSCKASGFNIKDTYIQWVRQAPGQGLEWMGRIDPLRKQTKYREKFEGRVTITADTSTNTAYMELSSLRSEDTAVYYCVRSGREFDYWGQGTLVTVSSASTKGPSVFPLAPSSKSTSGGTAALGCLVKDYFPEPVTVSWNSGALTSGVHTFPAVLQSSGLYSLSSVVTVPSSSLGTQTYICNVNHKPSNTKVDKTVEPKSCDKTHTCPPCPAPELLGGPSVFLFPPKPKDTLMISRTPEVTCVVVDVSHEEPEVQFNWYVDGVEVHNAKTKPREEQYNSTYRVVSVLTVLHQDWLNGKEYKCKVSNDALPMPIEETISKAKGQPREPQVYTLPPSREEMTKNQVSLTCLVKGFYPSDIAVEWESNGQPENNYKTTPPVLDSDGSFFLYSKLTVDKSRWQQGNVFSCSVMHEALHNHYTQESLSLSP
light: DIQMTQSPSSLSASVGDRVTITCRASQDIHKYIAWYQQKPGQAPRLLIQYTSTLQPGVPSRFSGSGSGTDYTFTISSLQPEDIATYYCLQYEQLRTFGGGTKVEIKRTVAAPSVFIFPPSDEQLKSGTASVVCLLNNFYPREAKVQWKVDNALQSGNSQESVTEQDSKDSTYSLSSTLTLSKADYEKHKVYACEVTHQGLSSPVTKSFNRGEC
notes: Heterodimerized anti-EREG IgG1 antibody; A chain altered from H240-AK072, B chain altered from H240-BH076
[1]
  Kd: 0.051 nM
[2]
  Kd: 270 nM
[3]
  Kd: 72 nM
[4]
  Kd: 1400 nM
[5]
  Kd: 4.3 nM
[6]
  Kd: 0.89 nM

B2: H240-FA024/H240-FB001/L73-k0 (antibody, human IgG1, kappa)
heavy 1: B1 heavy 1 with I198T, E271K, M357K
heavy 2: B1 heavy 2 with T213K
light: B1 light
notes: as for B1
[1]
  Kd: 1.8 nM
[2]
  Kd: 370 nM
[3]
  Kd: 110 nM
[4]
  Kd: 2000 nM
[5]
  Kd: 6.7 nM
[6]
  Kd: 1.9 nM

B3: H240-FA030/H240-FB001/L73-k0 (antibody, human IgG1, kappa)
heavy 1: B1 heavy 1 with I198T, E271K
heavy 2: B1 heavy 2 with T213K
light: B1 light
notes: as for B1
[1]
  Kd: 0.036 nM
[2]
  Kd: 440 nM
[3]
  Kd: 120 nM
[4]
  Kd: 3300 nM
[5]
  Kd: 6.4 nM
[6]
  Kd: 1.7 nM

B4: H240-FA012/H240-FB001/L73-k0 (antibody, human IgG1, kappa)
heavy 1: B1 heavy 1 with E271K
heavy 2: B1 heavy 2 with T213K
light: B1 light
notes: as for B1
[1]
  Kd: 0.076 nM
[2]
  Kd: 350 nM
[3]
  Kd: 110 nM
[4]
  Kd: 1700 nM
[5]
  Kd: 6.3 nM
[6]
  Kd: 1.5 nM

B5: GpH7-A5/GpH7-HA5/GpL16-k0 (antibody, human IgG1, kappa)
heavy 1: not shown
heavy 2: QVQLVQSGAEVKKPGASVTVSCKASGYTFTDYEMHWIRQPPGEGLEWIGAIDPKTGDTAYSESFQDRVTLTADKSTSTAYMELSSLTSEDTAVYYCTRFYSYTYWGQGTLVTVSSASTKGPSVFPLAPSSKSTSGGTAALGCLVKDYFPEPVTVSWNSGALTSGVHTFPAVLQSSGLYSLSSVVTVPSSSLGTQTYICNVNHKPSNTKVDKKVEPKSCDKTHTCPPCPAPEYLGGPSVFLFPPKPKDTLMISRTPEVTCVVVDVSHEDPEVKFNWYVDGVEVHNAKTKPREEQYNSTYRVVSVLTVLHQDWLNGKEYKCKVSNKALRAPIEKTISKAKGQPREPQVYTLPPSRDELTKNQVSLTCLVKGFYPSDIAVEWESNGQPENNYKTTPPVLDSDGSFFLYSKLTVDKSRWQQGNVFSCSVMHEALHNHYTQESLSLSP
light: DIVMTQSPLSLPVTPGEPASISCQASESLVHSNRNTYLHWYLQKPGQSPQLLIYKVSNRFSGVPDRFSGSGSGTDFTLKISRVEAEDVGVYYCSQNTHVPPTFGQGTKVEIERTVAAPSVFIFPPSDEQLKSGTASVVCLLNNFYPREAKVQWKVDNALQSGNSQESVTEQDSKDSTYSLSSTLTLSKADYEKHKVYACEVTHQGLSSPVTKSFNRGEC
notes: Heterodimerized anti-glypican-3 IgG1 variant
[7]
  FcγRIIIa BINDING ACTIVITY (relative): 60 relative, GpH7-A5/GpH7-B3/GpL16-k0 = 100

B6: GpH7-A5/GpH7-HA7/GpL16-k0 (antibody, human IgG1, kappa)
heavy 1: not shown
heavy 2: B5 heavy 2 with Y232L, S237D
light: B5 light
notes: as for B5
[7]
  FcγRIIIa BINDING ACTIVITY (relative): 3 relative, GpH7-A5/GpH7-B3/GpL16-k0 = 100

B7: GpH7-A5/GpH7-HA6/GpL16-k0 (antibody, human IgG1, kappa)
heavy 1: not shown
heavy 2: B5 heavy 2 with Y232L, G234W
light: B5 light
notes: as for B5
[7]
  FcγRIIIa BINDING ACTIVITY (relative): 56 relative, GpH7-A5/GpH7-B3/GpL16-k0 = 100

B8: GpH7-A48/GpH7-B3-20-08L/GpL16-k0 (antibody, human IgG1, kappa)
heavy 1: B5 heavy 2 with Y232L, D354K, H433R, E437K
heavy 2: not shown
light: B5 light
notes: as for B5
[7]
  FcγRIIIa BINDING ACTIVITY (relative): 60 relative, GpH7-A5/GpH7-B3/GpL16-k0 = 100

B9: GpH7-A48/GpH7-B3-15-02A/GpL16-k0 (antibody, human IgG1, kappa)
heavy 1: B5 heavy 2 with Y232L, D354K, H433R, E437K
heavy 2: not shown
light: B5 light
notes: as for B5
[7]
  FcγRIIIa BINDING ACTIVITY (relative): 47 relative, GpH7-A5/GpH7-B3/GpL16-k0 = 100

B10: GpH7-A48/GpH7-B3-03-20W/GpL16-k0 (antibody, human IgG1, kappa)
heavy 1: B5 heavy 2 with Y232L, D354K, H433R, E437K
heavy 2: not shown
light: B5 light
notes: as for B5
[7]
  FcγRIIIa BINDING ACTIVITY (relative): 13 relative, GpH7-A5/GpH7-B3/GpL16-k0 = 100

B11: GpH7-A5/GpH7-HA18/GpL16-k0 (antibody, human IgG1, kappa)
heavy 1: not shown
heavy 2: B5 heavy 2 with Y232L, I330E
light: B5 light
notes: as for B5
[7]
  FcγRIIIa BINDING ACTIVITY (relative): 35 relative, GpH7-A5/GpH7-B3/GpL16-k0 = 100

B12: GpH7-A5/GpH7-HA15/GpL16-k0 (antibody, human IgG1, kappa)
heavy 1: not shown
heavy 2: B5 heavy 2 with Y232L, A328L
light: B5 light
notes: as for B5
[7]
  FcγRIIIa BINDING ACTIVITY (relative): 32 relative, GpH7-A5/GpH7-B3/GpL16-k0 = 100

B13: GpH7-A48/GpH7-B3-06-09D/GpL16-k0 (antibody, human IgG1, kappa)
heavy 1: B5 heavy 2 with Y232L, D354K, H433R, E437K
heavy 2: not shown
light: B5 light
notes: as for B5
[7]
  FcγRIIIa BINDING ACTIVITY (relative): 123 relative, GpH7-A5/GpH7-B3/GpL16-k0 = 100

B14: GpH7-A48/GpH7-B3-01-15Y/GpL16-k0 (antibody, human IgG1, kappa)
heavy 1: B5 heavy 2 with Y232L, D354K, H433R, E437K
heavy 2: not shown
light: B5 light
notes: as for B5
[7]
  FcγRIIIa BINDING ACTIVITY (relative): 11 relative, GpH7-A5/GpH7-B3/GpL16-k0 = 100

B15: GpH7-A5/GpH7-HA11/GpL16-k0 (antibody, human IgG1, kappa)
heavy 1: not shown
heavy 2: B5 heavy 2 with Y232L, S296A
light: B5 light
notes: as for B5
[7]
  FcγRIIIa BINDING ACTIVITY (relative): 84 relative, GpH7-A5/GpH7-B3/GpL16-k0 = 100
